Measured values as given in the supplement of paper PMC10567573.

B1: MYBL2 (parent)
chain: VKKSCWTEEEDRIICEAHKVLGNR

Variants of: B1
Experiment: protein stability index of a GFP-peptide fusion (GPS, HEK-293T) (PSI 1-6); higher = more stable
Conditions: c terminus: a fixed tail appended
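Also: lentivirally expressed fusions sorted by FACS into six bins by GFP to DsRed ratio, PSI derived from sequencing read proportions per bin multiplied by bin number.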

Protein stability index of substitutions, site by site:
V20: I 2.75; F 2.86; N 3.99; K 3.67; C 3.84; M 3.15; W 2.04; D 4.37
I14: A 4.24; V 3.71; Q 4; D 3.69; G 2.86; M 3.29; K 4.53; H 4.29; N 3.28; S 4.11; R 3.7; C 3.3; F 2.91
D11: S 2.8; V 3.39; H 3.57; W 2.42; Y 2.38; I 1.71; F 1.59; L 2.21; N 3.72; Q 3; G 3.01; A 2.95
V1: Q 3.23; I 3.23; S 3.35; P 3.66; C 3.04; T 3.78; N 3.33; L 3.02; G 3.32; R 3.9
E9: Q 3.45; D 3.34; P 2.82; A 2.59; G 2.8; R 2.58; K 3.37; N 3.3; F 2.31; S 2.66; V 2.45; Y 2.16; M 2.1; H 2.69
S4: Q 3.17; W 1.98; V 3.41; R 3; N 3.51; D 3.58; A 3.31; M 3.06; P 3.49; G 3.53; C 2.53
K3: Y 2.76; W 2.21; G 3.38; V 2.52; L 2.49; Q 3.27; E 4.1; S 3.12; N 2.78; R 3.3; C 2.39; H 3.26; A 3.43; I 2.4
E8: S 3.51; K 3.17; F 2.48; M 3.37; C 2.61; I 1.85; G 2.44; T 2.45; R 2.9; N 4.1; H 3.33; A 3.12
W6: M 3.99; T 3.94; G 3.97; R 3.87; I 3.7; V 3.5; C 4.48; A 3.92; P 4.4; N 4.17
R24: N 3.59; H 3.49; Q 4.15; A 3.42; W 1.86; E 4.05; F 2.4; M 2.86; T 3.95; V 3.47; S 3.63
G22: I 2.58; N 3.32; F 2.54; R 2.99; K 3.11; E 3.96; T 2.83; S 2.7; C 3.03; Q 1.97; W 2.28; M 2.89; Y 2.79; L 2.64; V 2.86
H18: I 2.91; S 3.81; N 3.88; K 3.73; M 2.73; V 2.2; D 4.01; E 3.83; T 3.79; P 4
N23: Q 2.95; E 3.96; A 3.08; R 3.64; F 2.21; K 2.59; C 3.23; I 2.63; Y 3.01; L 2.35; P 3.77
K2: D 4.25; M 2.92; C 2.31; A 3.28; L 2.98; F 2.86; Y 3.35; Q 3.6; P 3.47; H 3.25; R 3.54; I 2.89
T7: F 2.2; N 3.14; P 3.65; R 3.59
